In publication PMC10764318:

Columns and labels:
Assay in all cases: BLI
[1] = molecular target: WRAIR-5005 (rhesus macaque)
[2] = molecular target: WRAIR-5004 (rhesus macaque)
[3] = molecular target: WRAIR-5001 (rhesus macaque | human)
[4] = molecular target: WRAIR-5001 (rhesus macaque)
[5] = molecular target: WRAIR-5011 (rhesus macaque)
Sequence of WRAIR-5011 (rhesus macaque) (VH, as listed by the source, chain 1 of 2): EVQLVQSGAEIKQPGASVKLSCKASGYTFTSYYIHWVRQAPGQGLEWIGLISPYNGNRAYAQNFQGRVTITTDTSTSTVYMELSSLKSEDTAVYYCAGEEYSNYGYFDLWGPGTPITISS
Sequence of WRAIR-5011 (rhesus macaque) (VL, as listed by the source, chain 2 of 2): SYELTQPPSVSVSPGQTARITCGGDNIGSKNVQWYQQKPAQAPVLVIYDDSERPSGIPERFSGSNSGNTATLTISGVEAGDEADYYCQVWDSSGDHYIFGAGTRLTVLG

Sequence of WRAIR-5004 (rhesus macaque) (VH, as listed by the source, chain 1 of 2): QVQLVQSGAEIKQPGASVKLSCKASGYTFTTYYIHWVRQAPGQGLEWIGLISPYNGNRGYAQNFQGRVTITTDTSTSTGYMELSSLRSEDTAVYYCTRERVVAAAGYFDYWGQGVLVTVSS
Sequence of WRAIR-5004 (rhesus macaque) (VL, as listed by the source, chain 2 of 2): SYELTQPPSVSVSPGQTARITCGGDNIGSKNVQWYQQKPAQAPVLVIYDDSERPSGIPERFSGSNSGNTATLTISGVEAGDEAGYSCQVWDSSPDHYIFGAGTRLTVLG
Sequence of WRAIR-5005 (rhesus macaque) (VH, as listed by the source, chain 1 of 2): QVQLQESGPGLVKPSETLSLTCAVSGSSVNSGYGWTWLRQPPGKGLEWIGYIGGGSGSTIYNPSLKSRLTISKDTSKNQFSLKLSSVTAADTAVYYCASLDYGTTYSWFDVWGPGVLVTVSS
Sequence of WRAIR-5005 (rhesus macaque) (VL, as listed by the source, chain 2 of 2): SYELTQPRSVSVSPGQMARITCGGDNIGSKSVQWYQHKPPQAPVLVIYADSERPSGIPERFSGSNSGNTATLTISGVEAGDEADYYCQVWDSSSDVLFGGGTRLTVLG
Sequence of WRAIR-5001 (rhesus macaque) (VH, as listed by the source, chain 1 of 2): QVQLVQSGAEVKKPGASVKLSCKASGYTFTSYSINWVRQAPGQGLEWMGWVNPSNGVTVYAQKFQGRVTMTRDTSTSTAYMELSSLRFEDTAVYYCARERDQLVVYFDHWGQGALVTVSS
Sequence of WRAIR-5001 (rhesus macaque) (VL, as listed by the source, chain 2 of 2): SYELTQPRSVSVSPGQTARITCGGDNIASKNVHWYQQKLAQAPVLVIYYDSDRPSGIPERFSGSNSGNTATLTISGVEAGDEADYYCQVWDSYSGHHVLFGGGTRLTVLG

SARS-CoV-1 RBD (domain or fragment)
Kd [1]: 154 nM
koff [1]: 0.00318 s⁻¹
kon [1]: 20700 M⁻¹ s⁻¹
Kd [2]: 28.9 nM
koff [2]: 0.00458 s⁻¹
kon [2]: 158000 M⁻¹ s⁻¹
Kd [3]: 3.45 nM
koff [4]: 0.00061 s⁻¹
kon [4]: 177000 M⁻¹ s⁻¹
Kd [5]: 12.7 nM
koff [5]: 0.0014 s⁻¹
kon [5]: 110000 M⁻¹ s⁻¹
